Paper PMC9130146, “Alteration in DNA-binding affinity of Wilms tumor 1 protein due to WT1 genetic variants associated with steroid - resistant nephrotic syndrome in children”

Legend:
Experiment in all cases: MST; 50 mM Na2HPO4.12H2O, 150 mM NaCl, 0.005% Tween; pH not stated; room temperature; 80 nM DNA; protein from 1-4 mM (highest) downward
WT1 ZF2-4 p.Arg439Pro = WT1 ZF2-4 p.Arg439Pro (Homo sapiens (cDNA from A549 cells), UniProt P19544-2 334-423, R349P); conditions: protein: recombinant; tags: no tag stated; label: 5' Cyanine5; single strand
WT1 ZF2-4 p.His450Arg = WT1 ZF2-4 p.His450Arg (Homo sapiens (cDNA from A549 cells), UniProt P19544-2 334-423, H360R); conditions: protein: recombinant; tags: no tag stated; label: 5' Cyanine5; single strand
WT1 ZF2-4 p.Arg463Ter = WT1 ZF2-4 p.Arg463Ter (Homo sapiens (cDNA from A549 cells), UniProt P19544-2 334-372); conditions: protein: recombinant; tags: no tag stated; label: 5' Cyanine5; single strand
WT1 ZF2-4 p.Cys433Tyr = WT1 ZF2-4 p.Cys433Tyr (Homo sapiens (cDNA from A549 cells), UniProt P19544-2 334-423, C343Y); conditions: protein: recombinant; tags: no tag stated; label: 5' Cyanine5; single strand
[1] = target: WT1 ZF2-4 wild type (-KTS) (Homo sapiens (cDNA from A549 cells), UniProt P19544-2 334-423); conditions: protein: recombinant; tags: no tag stated; pET22b, reverse primer has a stop codon; label: 5' Cyanine5; single strand
WT1 ZF2-4 p.Gln447Pro = WT1 ZF2-4 p.Gln447Pro (Homo sapiens (cDNA from A549 cells), UniProt P19544-2 334-423, Q357P); conditions: protein: recombinant; tags: no tag stated; label: 5' Cyanine5; single strand
WT1 ZF2-4 p.Arg467Trp = WT1 ZF2-4 p.Arg467Trp (Homo sapiens (cDNA from A549 cells), UniProt P19544-2 334-423, R377W); conditions: protein: recombinant; tags: no tag stated; label: 5' Cyanine5; single strand
WT1 ZF2-4 p.His474Arg = WT1 ZF2-4 p.His474Arg (Homo sapiens (cDNA from A549 cells), UniProt P19544-2 334-423, H384R); conditions: protein: recombinant; tags: no tag stated; label: 5' Cyanine5; single strand
WT1 ZF2-4 p.Asp469Asn = WT1 ZF2-4 p.Asp469Asn (Homo sapiens (cDNA from A549 cells), UniProt P19544-2 334-423, D379N); conditions: protein: recombinant; tags: no tag stated; label: 5' Cyanine5; single strand
Sequence of WT1 ZF2-4 p.Asp469Asn (P19544 other isoform, or with tags, fused parts or gaps D379N | p.D469N p.D469N): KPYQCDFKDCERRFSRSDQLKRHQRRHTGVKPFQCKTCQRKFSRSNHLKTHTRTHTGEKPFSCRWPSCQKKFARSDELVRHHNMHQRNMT

Sequence of WT1 ZF2-4 p.Arg463Ter (P19544 351-389): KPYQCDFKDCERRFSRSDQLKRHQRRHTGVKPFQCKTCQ
Sequence of WT1 ZF2-4 p.Arg467Trp (P19544 other isoform, or with tags, fused parts or gaps R377W | p.R467W p.R467W): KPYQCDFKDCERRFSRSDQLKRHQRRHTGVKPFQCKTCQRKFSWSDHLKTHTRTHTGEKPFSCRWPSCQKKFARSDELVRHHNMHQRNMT
Sequence of WT1 ZF2-4 p.Arg439Pro (P19544 other isoform, or with tags, fused parts or gaps R349P | p.R439P p.R439P): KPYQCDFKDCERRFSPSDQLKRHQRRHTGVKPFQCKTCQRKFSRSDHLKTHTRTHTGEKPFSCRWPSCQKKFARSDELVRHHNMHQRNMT
Sequence of WT1 ZF2-4 wild type (-KTS) (P19544 other isoform, or with tags, fused parts or gaps): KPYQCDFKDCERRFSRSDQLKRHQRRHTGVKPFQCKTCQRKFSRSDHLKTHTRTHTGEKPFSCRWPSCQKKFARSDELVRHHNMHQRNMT
Sequence of WT1 ZF2-4 p.Gln447Pro (P19544 other isoform, or with tags, fused parts or gaps Q357P | p.Q447P p.Q447P): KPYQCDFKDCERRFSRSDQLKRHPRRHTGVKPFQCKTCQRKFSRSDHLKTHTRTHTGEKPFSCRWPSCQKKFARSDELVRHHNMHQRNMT
Sequence of WT1 ZF2-4 p.His450Arg (P19544 other isoform, or with tags, fused parts or gaps H360R | p.H450R p.H450R): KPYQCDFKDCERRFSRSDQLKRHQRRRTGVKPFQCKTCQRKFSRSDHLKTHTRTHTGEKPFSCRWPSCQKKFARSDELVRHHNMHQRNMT
Sequence of WT1 ZF2-4 p.Cys433Tyr (P19544 other isoform, or with tags, fused parts or gaps C343Y | p.C433Y p.C433Y): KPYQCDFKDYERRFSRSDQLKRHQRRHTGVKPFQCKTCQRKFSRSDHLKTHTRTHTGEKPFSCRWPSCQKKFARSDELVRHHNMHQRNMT
Sequence of WT1 ZF2-4 p.His474Arg (P19544 other isoform, or with tags, fused parts or gaps H384R | p.H474R p.H474R): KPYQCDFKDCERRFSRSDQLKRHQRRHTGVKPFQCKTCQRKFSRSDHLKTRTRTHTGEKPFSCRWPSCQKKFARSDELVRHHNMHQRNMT

GTGGAGGCGGCGGGGGCGGCAGCAACAG (ssDNA) [EGR1 DNA motif, Cy5 oligo] showed a Kd (WT1 ZF2-4 p.Arg439Pro) of 319 ± 72.7 µM, a Kd (WT1 ZF2-4 p.His450Arg) of 878 ± 164 µM and a Kd (WT1 ZF2-4 p.Arg463Ter) of 324 ± 13.3 µM. The Kd (WT1 ZF2-4 p.Cys433Tyr) was 89.4 ± 7 µM, the Kd [1] was 111 ± 7.4 µM and the Kd (WT1 ZF2-4 p.Gln447Pro) was 24.9 ± 4.2 µM. It also gave a Kd (WT1 ZF2-4 p.Arg467Trp) of 94.6 ± 9.8 µM, a Kd (WT1 ZF2-4 p.His474Arg) of 48.4 ± 6 µM and a Kd (WT1 ZF2-4 p.Asp469Asn) of 12.1 ± 1.7 µM.
